molecular target: T1, F-actin (skeletal muscle actin, polymerised) ( (rabbit or chicken skeletal …, UniProt P68135 1-377))

| Kd | Binder |
| --- | --- |
| 5.69 µM | ΔCC-N-CAP1, helical folded domain of human CAP1 with the coiled coil (a.a. 1-29) deleted (domain or fragment) GYADSPSKAGAAPYVQAFDSLLAGPVAEYLKISKEIGGDVQKHAEMVHTGLKLERALLVTASQCQQPAENKLSDLLAPISEQIKEVITFREKNRGSKLFNHLSAVSESIQALGWVAMAPKPGPYVKEMNDAAMFYTNRVLKEYKDVDKKHVDWVKAYLSIWTELQAYIKEFHTTGLAWSKTGPVAKELSGL |
| 0.91 µM | N-CAP1, N-terminal fragment of human cyclase-associated protein 1 (original coiled coil and helical folded domain) (domain or fragment) MADMQNLVERLERAVGRLEAVSHTSDMHRGYADSPSKAGAAPYVQAFDSLLAGPVAEYLKISKEIGGDVQKHAEMVHTGLKLERALLVTASQCQQPAENKLSDLLAPISEQIKEVITFREKNRGSKLFNHLSAVSESIQALGWVAMAPKPGPYVKEMNDAAMFYTNRVLKEYKDVDKKHVDWVKAYLSIWTELQAYIKEFHTTGLAWSKTGPVAKELSGL |
| 2.97 µM | TD-N-CAP1, human CAP1 helical folded domain with the coiled coil (a.a. 1-29) replaced by the trimerization domain 2L6HC3_6 (other) GTKYKIKETLKRLEDSLRELRRILEELKEMLERLEKNPDKDVIVEVLKVIVKAIEASVENQRISAENQKALAESDGYADSPSKAGAAPYVQAFDSLLAGPVAEYLKISKEIGGDVQKHAEMVHTGLKLERALLVTASQCQQPAENKLSDLLAPISEQIKEVITFREKNRGSKLFNHLSAVSESIQALGWVAMAPKPGPYVKEMNDAAMFYTNRVLKEYKDVDKKHVDWVKAYLSIWTELQAYIKEFHTTGLAWSKTGPVAKELSGL |
| 3.42 µM | DD-N-CAP1, human CAP1 helical folded domain with the coiled coil (a.a. 1-29) replaced by the dimerization domain 2L4HC2_23 (other) GTRTEIIRELERSLREQEELAKRLKELLRELERLQREGSSDEDVRELLREIKELVEEIEKLAREQKYLVEELKRQDGYADSPSKAGAAPYVQAFDSLLAGPVAEYLKISKEIGGDVQKHAEMVHTGLKLERALLVTASQCQQPAENKLSDLLAPISEQIKEVITFREKNRGSKLFNHLSAVSESIQALGWVAMAPKPGPYVKEMNDAAMFYTNRVLKEYKDVDKKHVDWVKAYLSIWTELQAYIKEFHTTGLAWSKTGPVAKELSGL |

molecular target: T1, F-actin (skeletal muscle actin, …); remark: another data set of the same source

| Kd | Binder |
| --- | --- |
| 7.11 µM | DD-N-CAP2, human CAP2 helical folded domain with the coiled coil (a.a. 1-29) replaced by the dimerization domain 2L4HC2_23 (other) GTRTEIIRELERSLREQEELAKRLKELLRELERLQREGSSDEDVRELLREIKELVEEIEKLAREQKYLVEELKRQDGNCGEVNGVIAGVAPSVEAFDKLMDSMVAEFLKNSRILAGDVETHAEMVHSAFQAQRAFLLMASQYQQPHENDVAALLKPISEKIQEIQTFRERNRGSNMFNHLSAVSESIPALGWIAVSPKPGPYVKEMNDAATFYTNRVLKDYKHSDLRHVDWVKSYLNIWSELQAYIKEHHTTGLTWSKTGPVASTVS |
| 21.9 µM | ΔCC-N-CAP2, helical folded domain of human CAP2 with the coiled coil deleted (a.a. 30-220) (domain or fragment) GNCGEVNGVIAGVAPSVEAFDKLMDSMVAEFLKNSRILAGDVETHAEMVHSAFQAQRAFLLMASQYQQPHENDVAALLKPISEKIQEIQTFRERNRGSNMFNHLSAVSESIPALGWIAVSPKPGPYVKEMNDAATFYTNRVLKDYKHSDLRHVDWVKSYLNIWSELQAYIKEHHTTGLTWSKTGPVASTVS |
| 0.68 µM | TD-N-CAP2, human CAP2 helical folded domain with the coiled coil (a.a. 1-29) replaced by the trimerization domain 2L6HC3_6 (other) GTKYKIKETLKRLEDSLRELRRILEELKEMLERLEKNPDKDVIVEVLKVIVKAIEASVENQRISAENQKALAESDGNCGEVNGVIAGVAPSVEAFDKLMDSMVAEFLKNSRILAGDVETHAEMVHSAFQAQRAFLLMASQYQQPHENDVAALLKPISEKIQEIQTFRERNRGSNMFNHLSAVSESIPALGWIAVSPKPGPYVKEMNDAATFYTNRVLKDYKHSDLRHVDWVKSYLNIWSELQAYIKEHHTTGLTWSKTGPVASTVS |

Reference: article PMC6888645 (2019)
